Data taken from patent US20230365641.
Values joined by “and” are separate entries in the source; they are usually repeats but may differ in a detail not shown here. Equal entries are not always repeated.

Chain of recombinant human MMP-9 (chain, as listed by the source): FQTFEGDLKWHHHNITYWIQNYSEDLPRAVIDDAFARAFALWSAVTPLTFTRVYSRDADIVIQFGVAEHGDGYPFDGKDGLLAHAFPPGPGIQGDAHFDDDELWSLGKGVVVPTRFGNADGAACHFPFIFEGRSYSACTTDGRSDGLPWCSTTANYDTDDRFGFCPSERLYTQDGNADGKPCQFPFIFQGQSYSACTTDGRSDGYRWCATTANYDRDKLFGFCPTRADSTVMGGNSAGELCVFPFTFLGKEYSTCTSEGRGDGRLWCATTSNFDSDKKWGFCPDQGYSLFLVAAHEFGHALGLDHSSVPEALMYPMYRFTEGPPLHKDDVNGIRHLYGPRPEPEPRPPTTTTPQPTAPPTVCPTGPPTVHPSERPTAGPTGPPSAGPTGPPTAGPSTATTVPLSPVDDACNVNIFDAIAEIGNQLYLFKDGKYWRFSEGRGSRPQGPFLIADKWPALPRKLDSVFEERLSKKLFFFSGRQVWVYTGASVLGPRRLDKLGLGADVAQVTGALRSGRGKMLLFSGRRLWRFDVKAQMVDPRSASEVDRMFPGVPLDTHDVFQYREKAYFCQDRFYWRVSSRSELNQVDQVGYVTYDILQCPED
Chain of MMP-10 protease (chain, as listed by the source): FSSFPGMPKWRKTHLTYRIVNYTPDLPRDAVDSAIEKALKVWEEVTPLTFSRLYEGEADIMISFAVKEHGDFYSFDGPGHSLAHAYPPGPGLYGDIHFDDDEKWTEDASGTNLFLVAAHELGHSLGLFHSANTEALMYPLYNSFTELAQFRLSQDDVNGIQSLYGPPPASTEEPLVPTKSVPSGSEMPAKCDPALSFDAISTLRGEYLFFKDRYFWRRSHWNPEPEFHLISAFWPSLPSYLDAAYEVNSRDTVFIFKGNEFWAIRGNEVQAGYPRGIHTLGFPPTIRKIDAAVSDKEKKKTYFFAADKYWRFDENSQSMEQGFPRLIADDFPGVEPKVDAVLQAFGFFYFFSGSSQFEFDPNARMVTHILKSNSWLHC
Chain of TC24 (chain, as listed by the source, chain 1 of 3, other chains not shown): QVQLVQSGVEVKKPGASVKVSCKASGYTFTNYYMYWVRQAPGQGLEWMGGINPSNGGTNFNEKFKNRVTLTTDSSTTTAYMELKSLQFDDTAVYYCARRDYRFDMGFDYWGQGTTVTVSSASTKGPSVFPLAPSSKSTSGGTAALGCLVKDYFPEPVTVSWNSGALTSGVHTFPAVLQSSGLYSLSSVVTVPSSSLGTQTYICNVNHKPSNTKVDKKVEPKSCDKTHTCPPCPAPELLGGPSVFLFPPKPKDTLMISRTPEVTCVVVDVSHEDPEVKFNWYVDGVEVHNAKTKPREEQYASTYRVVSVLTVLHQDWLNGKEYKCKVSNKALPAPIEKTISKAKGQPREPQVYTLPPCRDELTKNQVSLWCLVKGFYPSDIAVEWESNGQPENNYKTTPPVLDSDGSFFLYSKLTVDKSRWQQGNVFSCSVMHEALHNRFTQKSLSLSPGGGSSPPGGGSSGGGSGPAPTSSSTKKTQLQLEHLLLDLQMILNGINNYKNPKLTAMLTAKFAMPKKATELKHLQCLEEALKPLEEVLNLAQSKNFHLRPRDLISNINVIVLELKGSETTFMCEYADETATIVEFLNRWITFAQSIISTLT
Chain of TC24 (chain, as listed by the source, chain 2 of 3, other chains not shown): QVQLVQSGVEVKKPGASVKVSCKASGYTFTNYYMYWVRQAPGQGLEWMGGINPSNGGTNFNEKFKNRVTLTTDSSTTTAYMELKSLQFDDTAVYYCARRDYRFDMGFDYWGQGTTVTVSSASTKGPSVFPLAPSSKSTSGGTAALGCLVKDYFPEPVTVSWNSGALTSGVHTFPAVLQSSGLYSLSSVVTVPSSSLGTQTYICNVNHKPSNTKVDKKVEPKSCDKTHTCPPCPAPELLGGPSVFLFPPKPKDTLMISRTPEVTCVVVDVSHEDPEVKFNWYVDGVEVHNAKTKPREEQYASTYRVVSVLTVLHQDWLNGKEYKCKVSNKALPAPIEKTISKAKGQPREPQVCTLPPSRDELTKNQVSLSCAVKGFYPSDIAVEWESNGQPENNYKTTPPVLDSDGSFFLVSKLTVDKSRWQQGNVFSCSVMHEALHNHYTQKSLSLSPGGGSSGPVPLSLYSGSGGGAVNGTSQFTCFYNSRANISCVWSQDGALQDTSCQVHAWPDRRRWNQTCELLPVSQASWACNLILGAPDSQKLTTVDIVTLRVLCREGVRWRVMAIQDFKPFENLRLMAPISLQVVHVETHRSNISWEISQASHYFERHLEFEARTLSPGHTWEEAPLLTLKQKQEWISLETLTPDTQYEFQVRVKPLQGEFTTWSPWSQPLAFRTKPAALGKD
Chain of TC46 (chain, as listed by the source, chain 1 of 3, other chains not shown): as the sequence (chain, as listed by the source, chain 1 of 3, other chains not shown) above
Chain of TC46 (chain, as listed by the source, chain 2 of 3, other chains not shown): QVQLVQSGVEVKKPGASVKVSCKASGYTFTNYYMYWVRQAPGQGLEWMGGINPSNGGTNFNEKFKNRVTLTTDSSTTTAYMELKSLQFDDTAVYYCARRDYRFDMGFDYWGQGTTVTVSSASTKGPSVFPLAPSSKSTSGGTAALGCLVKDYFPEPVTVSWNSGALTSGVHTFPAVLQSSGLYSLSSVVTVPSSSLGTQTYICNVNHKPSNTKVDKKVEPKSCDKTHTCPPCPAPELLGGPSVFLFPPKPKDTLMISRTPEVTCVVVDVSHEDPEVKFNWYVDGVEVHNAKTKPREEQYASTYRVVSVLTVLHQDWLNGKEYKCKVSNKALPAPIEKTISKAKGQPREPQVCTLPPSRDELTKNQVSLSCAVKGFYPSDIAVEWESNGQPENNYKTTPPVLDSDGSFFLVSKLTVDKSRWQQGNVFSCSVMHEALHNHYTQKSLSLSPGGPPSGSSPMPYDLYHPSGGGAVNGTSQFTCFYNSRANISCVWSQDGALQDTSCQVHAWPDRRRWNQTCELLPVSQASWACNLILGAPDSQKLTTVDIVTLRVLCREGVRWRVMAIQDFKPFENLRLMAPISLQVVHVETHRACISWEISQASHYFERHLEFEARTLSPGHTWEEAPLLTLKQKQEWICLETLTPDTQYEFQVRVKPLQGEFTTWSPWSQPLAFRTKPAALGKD
Chain of TC47 (chain, as listed by the source, chain 1 of 3, other chains not shown): as the sequence (chain, as listed by the source, chain 1 of 3, other chains not shown) above
Chain of TC47 (chain, as listed by the source, chain 2 of 3, other chains not shown): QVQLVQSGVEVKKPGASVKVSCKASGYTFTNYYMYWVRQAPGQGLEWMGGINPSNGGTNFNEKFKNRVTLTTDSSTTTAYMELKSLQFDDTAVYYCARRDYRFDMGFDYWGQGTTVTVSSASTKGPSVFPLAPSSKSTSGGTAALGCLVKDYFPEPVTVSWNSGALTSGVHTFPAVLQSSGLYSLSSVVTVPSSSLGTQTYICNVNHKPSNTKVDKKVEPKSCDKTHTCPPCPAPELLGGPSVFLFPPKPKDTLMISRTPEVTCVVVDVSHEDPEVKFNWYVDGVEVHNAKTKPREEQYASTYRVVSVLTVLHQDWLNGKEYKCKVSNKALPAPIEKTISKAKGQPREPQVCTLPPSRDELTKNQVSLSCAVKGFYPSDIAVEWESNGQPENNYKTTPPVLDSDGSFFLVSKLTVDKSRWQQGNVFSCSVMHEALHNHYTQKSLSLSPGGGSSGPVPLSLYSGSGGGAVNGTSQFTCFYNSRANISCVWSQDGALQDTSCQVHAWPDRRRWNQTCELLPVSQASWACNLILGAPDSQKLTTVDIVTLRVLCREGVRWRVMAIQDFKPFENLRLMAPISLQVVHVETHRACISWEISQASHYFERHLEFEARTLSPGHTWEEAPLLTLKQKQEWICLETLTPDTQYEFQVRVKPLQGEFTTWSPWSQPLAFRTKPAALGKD
Chain of TC3 (chain, as listed by the source, chain 1 of 3, other chains not shown): as the sequence (chain, as listed by the source, chain 1 of 3, other chains not shown) above
Chain of TC3 (chain, as listed by the source, chain 2 of 3, other chains not shown): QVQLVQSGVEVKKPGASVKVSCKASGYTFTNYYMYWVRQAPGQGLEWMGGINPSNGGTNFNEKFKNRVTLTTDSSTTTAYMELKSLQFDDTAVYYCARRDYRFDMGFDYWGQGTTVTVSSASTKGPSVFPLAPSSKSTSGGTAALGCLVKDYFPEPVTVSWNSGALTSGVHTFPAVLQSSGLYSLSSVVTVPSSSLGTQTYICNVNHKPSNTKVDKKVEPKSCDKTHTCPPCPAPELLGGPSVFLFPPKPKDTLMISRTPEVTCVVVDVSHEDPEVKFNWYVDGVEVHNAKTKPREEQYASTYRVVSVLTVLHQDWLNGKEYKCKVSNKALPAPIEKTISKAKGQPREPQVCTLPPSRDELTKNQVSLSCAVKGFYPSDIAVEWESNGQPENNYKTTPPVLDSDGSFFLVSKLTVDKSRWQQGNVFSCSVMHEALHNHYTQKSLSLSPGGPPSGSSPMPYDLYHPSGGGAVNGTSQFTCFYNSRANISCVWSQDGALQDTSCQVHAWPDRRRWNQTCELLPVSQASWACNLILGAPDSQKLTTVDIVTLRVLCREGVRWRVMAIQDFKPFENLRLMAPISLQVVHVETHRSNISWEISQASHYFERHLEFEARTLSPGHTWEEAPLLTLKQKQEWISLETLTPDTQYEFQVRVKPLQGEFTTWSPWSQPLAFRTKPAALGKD

Row | Substance | Est. kcat/KM (TC24) | Est. kcat/KM (TC3) | Est. kcat/KM (TC46) | Est. kcat/KM (TC47) | Est. kcat/KM (TC53) | Est. kcat/KM (TC57) | Est. kcat/KM (TC68) | Est. kcat/KM (TC69) | Est. kcat/KM (TC70) | Est. kcat/KM (TC71) | Est. kcat/KM (TC73) | Est. kcat/KM (TC74) | Est. kcat/KM (TC75) | cleavage efficiency (TC21) | cleavage efficiency (TC24) | cleavage efficiency (TC26) | cleavage efficiency (TC27)
1 | recombinant human MMP-9 | 42000 M⁻¹ s⁻¹ | 3500 M⁻¹ s⁻¹ | 3500 M⁻¹ s⁻¹ | 38000 M⁻¹ s⁻¹ | 19000 M⁻¹ s⁻¹ and 18000 M⁻¹ s⁻¹ | 13000 M⁻¹ s⁻¹ and 14000 M⁻¹ s⁻¹ | 16000 M⁻¹ s⁻¹ and 15000 M⁻¹ s⁻¹ | 35000 M⁻¹ s⁻¹ and 36000 M⁻¹ s⁻¹ | 390 M⁻¹ s⁻¹ and 370 M⁻¹ s⁻¹ | 28000 M⁻¹ s⁻¹ and 30000 M⁻¹ s⁻¹ | 30000 M⁻¹ s⁻¹ and 29000 M⁻¹ s⁻¹ | 850 M⁻¹ s⁻¹ and 860 M⁻¹ s⁻¹ | 25000 M⁻¹ s⁻¹ and 26000 M⁻¹ s⁻¹ | – | – | – | –
2 | MMP-10 protease | – | – | – | – | – | – | – | – | – | – | – | – | – | cleavage efficiency of greater than 80% | cleavage efficiency of greater than 80% | cleavage efficiency of greater than 80% | cleavage efficiency of greater than 80%
